Assay results as given in publication PMC5641629.

Target: penicillin binding protein 2a (PBP2a) lacking the N-terminal 40 amino acid membrane-spanning domain (Staphylococcus aureus (MRSA))
Assay: SPR

| Substance | Kd [nM] | koff [s⁻¹] | kon [M⁻¹ s⁻¹] |
| --- | --- | --- | --- |
| BLIP-II D52A (from UniProt O87916 1-311) (natural protein) | 1800 | 0.00061 | 354 |
| BLIP-II E268A (from UniProt O87916 1-311) (natural protein) | 4700 |  | 424 |
| BLIP-II F209A (from UniProt O87916 1-311) (natural protein) | 6000 | 0.00078 | 137 |
| BLIP-II I229A (from UniProt O87916 1-311) (natural protein) | 3400 | 0.00115 | 339 |
| BLIP-II L91A (from UniProt O87916 1-311) (natural protein) | 4000 | 0.00066 | 168 |
| BLIP-II N50A (from UniProt O87916 1-311) (natural protein) | 450 | 0.000719 | 1540 |
| BLIP-II N51A (from UniProt O87916 1-311) (natural protein) | 700 | 0.00086 | 1270 |
| BLIP-II N112A (from UniProt O87916 1-311) (natural protein) | 1200 | 0.0014 | 1190 |
| BLIP-II S169A (from UniProt O87916 1-311) (natural protein) | 1400 | 0.00074 | 504 |
| BLIP-II T57A (from UniProt O87916 1-311) (natural protein) | 600 | 0.00095 | 1750 |
| BLIP-II W152A (from UniProt O87916 1-311) (natural protein) |  | 0.0012 | 185 |
| BLIP-II W269A (from UniProt O87916 1-311) (natural protein) | 3100 | 0.00116 | 375 |
| BLIP-II Y73A (from UniProt O87916 1-311) (natural protein) | 1200 | 0.00119 | 961 |
| BLIP-II Y113A (from UniProt O87916 1-311) (natural protein) | 4000 |  | 217 |
| BLIP-II Y248A (from UniProt O87916 1-311) (natural protein) |  | 0.00086 | 114 |
